Patent US20240167012

Key:
[1] = system: gliadin
[2] = system: T1, gluten immunogenic peptide 33-mer from α-gliadin
T1 sequence: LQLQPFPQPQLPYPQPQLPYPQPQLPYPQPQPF

[3] = system: T2, aspartic protease Rhodotorulapepsin
T2 sequence: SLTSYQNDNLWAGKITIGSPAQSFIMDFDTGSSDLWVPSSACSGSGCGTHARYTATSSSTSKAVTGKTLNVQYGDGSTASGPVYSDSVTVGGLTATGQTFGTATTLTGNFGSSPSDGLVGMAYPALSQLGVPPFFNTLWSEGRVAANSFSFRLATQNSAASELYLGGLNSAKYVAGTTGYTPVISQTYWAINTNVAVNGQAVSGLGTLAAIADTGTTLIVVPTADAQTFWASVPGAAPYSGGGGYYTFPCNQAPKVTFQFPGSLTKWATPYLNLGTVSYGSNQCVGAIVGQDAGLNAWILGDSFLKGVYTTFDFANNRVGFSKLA

[4] = system: T3, gluten immunogenic peptide 26-mer from γ-gliadin
T3 sequence: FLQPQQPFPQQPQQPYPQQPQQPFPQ

pepsin
hydrolysis of gliadin 7.5 mg/ml, SDS-PAGE (pH 3.0, 3 h) [1]: when only 250 µg/ml of pepsin was included in the enzyme mixture, gliadin was not completely hydrolyzed | hydrolysis of gliadin, SDS-PAGE of residual gliadin (pH 3.0, 37° C., enzyme:gliadin 1:500) [1]: gliadin was not hydrolyzed by pepsin even after 150 minutes of reaction | relative activity to hydrolyze gliadin, ELISA of residual gliadin (pH 2.5, 1.5 h, pepsin 1 mg/ml) [1]: the relative activity of the simulated gastric acid environment to hydrolyze gliadin is 13% | hydrolysis of the 33-mer, RP-HPLC (pH 3.0 and pH 5.0) [2]: gluten immunogenic peptides 26-mer and 33-mer were not degraded after the same reaction time | resistance of the protease to pepsin hydrolysis, inferred from gliadin hydrolysis in the presence of pepsin [3]: the aspartic protease Rhodotorulapepsin is resistant to pepsin hydrolysis | hydrolysis of the 26-mer, RP-HPLC (pH 3.0 and pH 5.0) [4]: gluten immunogenic peptides 26-mer and 33-mer were not degraded after the same reaction time
